What was measured:
Assay in all cases: ELISA on coated peptide
[1] = target: T1, PSGL-1 (residues 42-58) derived peptide sulfated at 1st tyrosine position
T1 sequence (peptide, sulfated at 1st tyrosine position): QATEYEYLDYDFLPETE

[2] = target: T2, PSGL-1 (residues 42-58) derived peptide sulfated at 2nd tyrosine position
T2 sequence (peptide, sulfated at 2nd tyrosine position): QATEYEYLDYDFLPETE

[3] = target: T3, GPIb (residues 268-285) derived peptide sulfated at 1st tyrosine position
T3 sequence (peptide, sulfated at 1st tyrosine position): GDEGDTDLYDYYPEEDTE

[4] = target: T4, PSGL-1 (residues 42-58) derived peptide sulfated at 3rd tyrosine position
T4 sequence (peptide, sulfated at 3rd tyrosine position): QATEYEYLDYDFLPETE

[5] = target: T5, CCR5 (residues 1-18) derived peptide, non-sulfated
T5 sequence (peptide): MDYQVSSPIYDINYYTSE

[6] = target: T6, CCR5 (residues 1-18) derived peptide sulfated at 3rd tyrosine position
T6 sequence (peptide, sulfated at 3rd tyrosine position): MDYQVSSPIYDINYYTSE

[7] = target: T7, CCR5 (residues 1-18) derived peptide sulfated at 1st tyrosine position
T7 sequence (peptide, sulfated at 1st tyrosine position): MDYQVSSPIYDINYYTSE

[8] = target: T8, GPIb (residues 268-285) derived peptide sulfated at 3rd tyrosine position
T8 sequence (peptide, sulfated at 3rd tyrosine position): GDEGDTDLYDYYPEEDTE

[9] = target: T9, CCR5 (residues 1-18) derived peptide sulfated at 2nd tyrosine position
T9 sequence (peptide, sulfated at 2nd tyrosine position): MDYQVSSPIYDINYYTSE

[10] = target: T10, GPIb (residues 268-285) derived peptide, non-sulfated
T10 sequence (peptide): GDEGDTDLYDYYPEEDTE

[11] = target: T11, PSGL-1 (residues 42-58) derived peptide, non-sulfated
T11 sequence (peptide): QATEYEYLDYDFLPETE

N06 scFv (negative control)
ELISA reading at 450 nm [1]: 0.06
ELISA reading at 450 nm [2]: 0.06
ELISA reading at 450 nm [3]: 0.07
ELISA reading at 450 nm [4]: 0.06
ELISA reading at 450 nm [5]: 0.06
ELISA reading at 450 nm [6]: 0.06
ELISA reading at 450 nm [7]: 0.06
ELISA reading at 450 nm [8]: 0.07
ELISA reading at 450 nm [9]: 0.06
ELISA reading at 450 nm [10]: 0.07
ELISA reading at 450 nm [11]: 0.06

Source: patent US20050266009A1
